Measured values taken from article PMC10602602, “The apiosyltransferase celery UGT94AX1 catalyzes the biosynthesis of the flavone glycoside apiin” (Plant Physiology, 2023).

Key:
[1] = substrate: O=c1cc(-c2ccc(O)cc2)oc2cc(O[C@@H]3O[C@H](CO)[C@@H](O)[C@H](O)[C@H]3O)cc(O)c12; experiment: reversed-phase HPLC glycosyltransferase assay, Michaelis-Menten nonlinear fit; assay type: biochemical, Apium graveolens; conditions: donor UDP-Api, 200 mM Tris-HCl, 50 mM NaCl, pH 7.0, 23 °C
Excerpt: (§1) reversed-phase HPLC glycosyltransferase assay, Michaelis-Menten nonlinear fit on AgApiT (UGT94AX1)

[2] = substrate: O=c1ccn([C@@H]2O[C@H](COP(=O)(O)OP(=O)(O)O[C@H]3OC[C@](O)(CO)[C@H]3O)[C@@H](O)[C@H]2O)c(=O)[nH]1; experiment: as above; assay type: biochemical, Apium graveolens; conditions: acceptor apigenin 7-O-glucoside, 200 mM Tris-HCl, 50 mM NaCl, pH 7.0, 23 °C
Excerpt: as §1

Protein	Km [1]	kcat [1]	kcat/Km [1]	Km [2]	kcat [2]	kcat/Km [2]
AgApiT (UGT94AX1) (Apium graveolens) (protein, full ORF, codon-optimized synthetic gene, pCold ProS2, E. coli BL21(DE3); His/ProS2 tag cut off with HRV3C protease; 49 kDa) MGSENAKTRILMFPYLAYGHISPFVELAKQLTKRNFHIYLCSTPINLASVKKRADEDDNIQLLEFHLPSSPELPPRYHCSTGLPAELNPVLLRVFENAGPVFVDILKDIKPDLVIYDFMPSWPAQVALSLNIQVVYFSIFPVPMCCLPLHDSKRAGEKFPYQNVVIPQSPNRFALMASRNLLNCFEKTCKFALVKGLREVEGKYIDLLSDLADKDIIAVGPLVHVSMEKEDDKTKSILKWLDSKEKSSVVFVCFGSESYLSAEETIEMANALETTKCNFIWAMKFPQEKKDSVQLPDGFVERVGELGMILDGWVPQTMILGHPSTGVFLSHCGWSSVNESMKFGVPIIGMPMRYDLALIAKLVVEIGVGMEIVKNNQGKFDREGIVNVLRKVLEDGSEVKAKATELSLKINEKGEEDLDKAAEELMQICRNKKEIQG	15 ± 3 µM	0.00088 ± 5e-05 s⁻¹	58 ± 15 M⁻¹ s⁻¹	8.6 ± 0.6 µM	0.00065 ± 1e-05 s⁻¹	76 ± 6 M⁻¹ s⁻¹
AgApiT (UGT94AX1) (Apium graveolens; L356Q) (protein, full ORF, codon-optimized synthetic gene, pCold ProS2, E. coli BL21(DE3); His/ProS2 tag cut off with HRV3C protease; 49 kDa) MGSENAKTRILMFPYLAYGHISPFVELAKQLTKRNFHIYLCSTPINLASVKKRADEDDNIQLLEFHLPSSPELPPRYHCSTGLPAELNPVLLRVFENAGPVFVDILKDIKPDLVIYDFMPSWPAQVALSLNIQVVYFSIFPVPMCCLPLHDSKRAGEKFPYQNVVIPQSPNRFALMASRNLLNCFEKTCKFALVKGLREVEGKYIDLLSDLADKDIIAVGPLVHVSMEKEDDKTKSILKWLDSKEKSSVVFVCFGSESYLSAEETIEMANALETTKCNFIWAMKFPQEKKDSVQLPDGFVERVGELGMILDGWVPQTMILGHPSTGVFLSHCGWSSVNESMKFGVPIIGMPMRYDQALIAKLVVEIGVGMEIVKNNQGKFDREGIVNVLRKVLEDGSEVKAKATELSLKINEKGEEDLDKAAEELMQICRNKKEIQG	52 ± 9 µM	0.00021 ± 2e-05 s⁻¹	2.1 ± 0.3 M⁻¹ s⁻¹	390 ± 60 µM	0.00014 ± 1e-05 s⁻¹	0.36 ± 0.08 M⁻¹ s⁻¹
AgApiT (UGT94AX1) (Apium graveolens; I139V) (protein, full ORF, codon-optimized synthetic gene, pCold ProS2, E. coli BL21(DE3); His/ProS2 tag cut off with HRV3C protease; 49 kDa) MGSENAKTRILMFPYLAYGHISPFVELAKQLTKRNFHIYLCSTPINLASVKKRADEDDNIQLLEFHLPSSPELPPRYHCSTGLPAELNPVLLRVFENAGPVFVDILKDIKPDLVIYDFMPSWPAQVALSLNIQVVYFSVFPVPMCCLPLHDSKRAGEKFPYQNVVIPQSPNRFALMASRNLLNCFEKTCKFALVKGLREVEGKYIDLLSDLADKDIIAVGPLVHVSMEKEDDKTKSILKWLDSKEKSSVVFVCFGSESYLSAEETIEMANALETTKCNFIWAMKFPQEKKDSVQLPDGFVERVGELGMILDGWVPQTMILGHPSTGVFLSHCGWSSVNESMKFGVPIIGMPMRYDLALIAKLVVEIGVGMEIVKNNQGKFDREGIVNVLRKVLEDGSEVKAKATELSLKINEKGEEDLDKAAEELMQICRNKKEIQG	17 ± 1 µM	0.00083 ± 7e-05 s⁻¹	50 ± 18 M⁻¹ s⁻¹	17 ± 1 µM	0.00047 ± 1e-05 s⁻¹	28 ± 3 M⁻¹ s⁻¹
